Reference: US20200069775A1, “BRAIN OSTEOCALCIN RECEPTOR AND COGNITIVE DISORDERS” (The Trustees of Columbia University in the City of New York, priority 2017, published 2020)

Biological target: T1, Gpr158 (Mus musculus, UniProt Q8C419)
T1 sequence (Q8C419 25-1200): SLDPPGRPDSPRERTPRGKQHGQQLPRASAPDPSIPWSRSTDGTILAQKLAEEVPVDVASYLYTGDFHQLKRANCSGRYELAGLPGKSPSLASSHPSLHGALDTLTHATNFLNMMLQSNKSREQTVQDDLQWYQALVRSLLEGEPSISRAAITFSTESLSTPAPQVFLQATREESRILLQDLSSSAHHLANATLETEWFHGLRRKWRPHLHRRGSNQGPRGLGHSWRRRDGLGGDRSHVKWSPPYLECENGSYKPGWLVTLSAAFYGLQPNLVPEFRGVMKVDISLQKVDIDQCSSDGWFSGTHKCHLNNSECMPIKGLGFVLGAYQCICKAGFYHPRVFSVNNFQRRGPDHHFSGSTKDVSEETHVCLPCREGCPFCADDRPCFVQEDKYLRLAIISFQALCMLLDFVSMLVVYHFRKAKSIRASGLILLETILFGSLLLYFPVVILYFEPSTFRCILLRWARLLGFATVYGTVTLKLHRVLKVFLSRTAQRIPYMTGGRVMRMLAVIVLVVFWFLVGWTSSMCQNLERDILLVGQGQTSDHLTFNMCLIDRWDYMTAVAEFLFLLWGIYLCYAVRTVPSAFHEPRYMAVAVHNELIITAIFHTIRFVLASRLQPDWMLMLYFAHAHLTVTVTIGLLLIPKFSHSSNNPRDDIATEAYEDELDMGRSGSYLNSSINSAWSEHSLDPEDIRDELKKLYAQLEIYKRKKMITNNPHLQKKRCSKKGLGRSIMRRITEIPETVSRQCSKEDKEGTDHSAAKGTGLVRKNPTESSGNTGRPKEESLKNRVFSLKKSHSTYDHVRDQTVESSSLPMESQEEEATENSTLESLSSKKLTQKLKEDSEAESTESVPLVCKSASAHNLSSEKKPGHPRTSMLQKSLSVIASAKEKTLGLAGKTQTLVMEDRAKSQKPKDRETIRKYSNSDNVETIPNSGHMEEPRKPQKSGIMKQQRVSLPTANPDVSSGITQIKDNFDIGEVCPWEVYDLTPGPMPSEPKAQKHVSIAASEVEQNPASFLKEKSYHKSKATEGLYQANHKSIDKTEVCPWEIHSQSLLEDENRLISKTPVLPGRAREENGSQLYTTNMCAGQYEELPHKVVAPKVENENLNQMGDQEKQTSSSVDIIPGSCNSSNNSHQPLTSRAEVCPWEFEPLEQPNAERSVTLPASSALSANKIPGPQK
Assay: Whole-cell current clamp in CA3 pyramidal neurons of WT and Gpr158−/− hippocampal slices
Assay type: cell-based
Parameters: visually identified pyramidal neurons in the CA3 area of the hippocampus; from tissue; host or cells: coronal hippocampal slices of 3-4 week old male WT and Gpr158-/- mice
Description: Coronal brain slices containing the hippocampus were prepared from wild type and KO mice (3-4 weeks old, male) as previously reporte. Briefly, mice were anesthetized with isoflurane and then decapitated to harvest brains, which were rapidly removed and immersed in an oxygenated cutting solution at 4° C. containing (in mM): sucrose 220, KCl 2.5, CaCl2 1, MgCl2 6, NaH2PO4 1.25, NaHCO3 26, and glucose 10, and adjusted to pH 7.3 with NaOH. Coronal slices containing the hioopcampus (300 μm thick) were cut with a vibratome, trimmed to contain just the hippocampus. After preparation, slices were stored in a holding chamber with an oxygenated (with 5% CO2 and 95% O2) artificial cerebrospinal fluid (ACSF) containing (in mM): NaCl 124, KCl3, CaCl2 2, MgCl2 2, NaH2PO4 1.23, NaHCO3 26, glucose 10, pH 7.4 with NaOH. The slices were eventually transferred to a recording chamber constantly perfused with ACSF at 33° C. at a rate of 2 ml/min after at least a 1 hour recovery in the storage chamber. […] After a stable base of APs were recorded for 10 minutes, osteocalcin was applied to the recorded cells through bath application at a concentration of 10 ng/ml for 5-10 minutes and then washed out with ACSF. […] Action potentials were detected and analyzed with AxoGraph X and plotted with Igor Pro software (WaveMetrics, Lake Oswego, Oreg.).

osteocalcin: Recombinant osteocalcin bacterially produced, cleaved from the GST subunit; completely undercarboxylated at all three sites; full-length mouse osteocalcin (YLGASVPSPDPLEPTREQCELNPACDELSDQYGLKTAYKRIYGITI)
CA3 pyramidal neurons showing the effect on spontaneous AP frequency (WT): 4 of 4 cells | action potential frequency in pyramidal cells of the CA3 region (WT hippocampi, 10 ng/ml): significantly enhanced the action potential frequency
